Source: patent US7582478B2, “Cleaved serum response factor in cardiac diagnosis and therapy” (Baylor College of Medicine, priority 2003, dated 2009)
“Also recorded” adds a separate entry of the source. Where a SMILES comes first, the peptide text is derived from it. The star is where a group is joined. Cbz = O=C(OCc1ccccc1)*; CH2F = FC*

T1: active recombinant human caspase 3 (Homo sapiens, UniProt P42574)
T1 construct: incubated with active recombinant human caspase 3; purchased BD PharMingen
T1 sequence (P42574 29-175 limits assumed): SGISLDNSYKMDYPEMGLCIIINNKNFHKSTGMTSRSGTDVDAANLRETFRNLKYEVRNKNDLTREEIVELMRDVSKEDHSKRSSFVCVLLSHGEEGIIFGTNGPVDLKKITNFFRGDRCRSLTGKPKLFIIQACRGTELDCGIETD
T1 sequence (P42574 176-277 limits assumed): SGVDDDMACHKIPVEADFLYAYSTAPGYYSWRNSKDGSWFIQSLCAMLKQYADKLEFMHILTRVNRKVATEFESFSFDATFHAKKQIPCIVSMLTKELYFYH

B1: SRF-N: N-terminal SRF (residues 1-254), 32 kDa caspase 3 cleavage fragment (protein)
chain: MLPTQAGAAAALGRGSALGGSLNRTPTGRPGGGGGTRGANGGRVPGNGAGLGPGRLEREAAAAAATTPAPTAGALYSGSEGDSESGEEEELGAERRGLKRSLSEMEIGMVVGGPEASAAATGGYGPVSGAVSGAKPGKKTRGRVKIKMEFIDNKLRRYTTFSKRKTGIMKKAYELSTLTGTQVLLLVASETGHVYTFATRKLQPMITSETGKALIQTCLNSPDSPPRSDPTTDQRMSATGFEETDLTYQVSESD
B2: SRF-C: C-terminal SRF (residues 255-508), 32 kDa fragment (protein)
chain: SSGETKDTLKPAFTVTNLPGTTSTIQTAPSTSTTMQVSSGPSFPITNYLAPVSASVSPSAVSSANGTVLKSTGSGPVSSGGLMQLPTSFTLMPGGAVAQQVPVQAIQVHQAPQQASPSRDSSTDLTQTSSSGTVTLPATIMTSSVPTTVGGHMMYPSPHAVMYAPTSGLGDGSLTVLNAFSQAPSTMQVSHSQVQEPGGVPQVFLTASSGTVQIPVSAVQLHQMAVIGQQAGSSSNLTELQVVNLDTAHSTKSE

How the values were obtained:
[1] = biological target: T1, active recombinant human caspase 3; test: In vitro cleavage of recombinant SRF by active caspase 3, Western blot; type: biochemical; conditions: 20 μM Z-VAD-fmk, recombinant full length SRF
Experimental: Recombinant purified full length SRF was incubated with active recombinant human caspase 3 (BD PharMingen) in the presence or absence of 20 μM of Z-VAD-fmk (BD PharMingen), a caspase 3 inhibitor, in a reaction buffer (50 mM HEPES (pH 7.4), 100 mM NaCl, 1 mM EDTA, 0.1% CHAPS, 10 mM DTT and 10% glycerol). Reactions were analyzed by Western blot as described above.
To examine caspase 3 cleavage of SRF, we incubated activated caspase 3 with recombinant SRF in vitro. […] Caspase 3 cleaved SRF in a time-dependent manner, and this cleavage was inhibited by the caspase inhibitor, Z-VAD. […] In this case, the 55 kDa fragment tended to fall as a function of caspase 3 doses while there was a coincident increase into a 32 kDa fragment.

[2] = test system: cardiac α-actin promoter; test: Cardiac α-actin promoter luciferase reporter (αCA-luc) co-transfection; type: cell-based, rat; conditions: for effect on cardiac α-actin promoter activity (in words): neonatal rat cardiomyocytes
Description: (§1) The construction and use of reporter plasmids containing the skeletal (SK-luc) and cardiac α-actin (aCA-luc) promoters linked to luciferase reporters were as previously described (MacLellan et al., 1994; Wei et al., 1998). The vector pCGN, a cytomegalovirus promoter-driven expression vector, was used to express full length SRF (residues 1-508) (pCGN-SRF), N-terminal SRF (residues 1-254) (pCGN-SRF-N), C-terminal SRF (residues 255-508) (pCGN-SRF-C) and SRFpm1 (pCGN-SRFpm1) containing triple point mutants within the MADS box (Prywes and Zhu, 1992).
(§2) C2C12 myoblasts and neonatal rat cardiomyocytes were cultured as previously described (MacLellan et al., 1994; Wei et al., 1998). Cells plated in 30-mm plates were transfected with […] of total plasmid DNA containing the reporter plasmid (SK-luc or aCA-luc) and the indicated expression plasmids. Transfections were performed using LipofectAMINE (Invitrogen) according to the manufacturer's instructions. Cells were harvested 40 h post-transfection and luciferase activity was measured as previously described (MacLellan et al., 1994).
(§3) To evaluate potential functional significance of the cleaved fragments, we overexpressed the SRF-N and SRF-C fragments via CMV promoter-driven expression plasmids co-transfected with cardiac α-actin and skeletal α-actin promoter reporter plasmids in cultured rat neonatal cardiomyocytes and C2C12 myoblasts. […] This inhibitory effect was very similar to that observed by a SRF negative mutant SRFpml (Wei et al., 1998; Prywes and Zhu, 1992; Johansen and Prywes, 1993).

[3] = test system: skeletal α-actin promoter; test: Skeletal α-actin promoter luciferase reporter (SK-luc) co-transfection in C2C12 myoblasts; type: cell-based
Description: as §1, §2, §3

[4] = test system: skeletal α-actin SRE1 DNA probe; test: Electrophoretic gel mobility shift assay (EMSA); type: binding; conditions: recombinant protein
Experimental: DNA binding activity of SRF-N was assayed by EMSA with recombinant SRF-N and full length SRF and with the oligonucleotide probe corresponding to the proximal SRE1 of the skeletal a-actin promoter as previously described (MacLellan et al., 1994; Wei et al., 1998). Recombinant SRF and SRF-N were generated using pET-15b (Novagen) vector, which contains 6′histidine tag. These recombinant SRFs were expressed in BL21 (Stratagene) competent cells followed by Ni-NTA (nickel-nitrilotriacetic acid) resin purification.

[5] = test system: neonatal cardiomyocytes; test: Immunofluorescence analysis of cellular localization in transfected cardiomyocytes; type: cell-based, rat; conditions: transfected cardiac myocytes, anti-HA antibody
Description: Visualization of transfected SRF and SRF-N cellular localization was implemented in neonatal cardiomyocytes attached to coverslips as described previously (Wei et al., 2001). Anti-HA antibody was used at 1:200.

| Molecule | cleavage of SRF by caspase 3 [1] | decrease of basal transcriptional activity of the cardiac α-actin promoter ([2]; cultured rat neonatal cardiomyocytes, CMV promoter-driven expression plasmid, 40 h post-transfection) | effect on cardiac α-actin promoter activity (in words) [2] | inhibition of the transcriptional activity of α-actin gene promoters ([2]; summary for myogenic cells (cardiomyocytes and C2C12 myoblasts together)) | effect on skeletal α-actin promoter activity (in words) [3] | decrease of basal transcriptional activity of the skeletal α-actin promoter ([3]; CMV promoter-driven expression plasmid, 40 h post-transfection) | binding to skeletal α-actin SRE1 DNA probe [4] | nuclear localization [5] |
| --- | --- | --- | --- | --- | --- | --- | --- | --- |
| COC(=O)C[C@H](NC(=O)[C@H](C)NC(=O)[C@@H](NC(=O)OCc1ccccc1)C(C)C)C(=O)CF [Z-VAD, Z-VAD-fmk] (Cbz-Val-Ala-Asp(OMe)-CH2F) | blocked; also recorded: inhibited | – | – | – | – | – | – | – |
| B1 | – | 60% | repressed | 50-60% | repressed | 50% | retains DNA binding activity; also recorded: bound | localize to myogenic nuclei |
| B2 | – | – | did not inhibit | – | did not inhibit | – | – | – |
